Source: paper PMC4622665

Experiments:
[1] = molecular target: cynomolgus formyl peptide receptor 1 (cynomolgus monkey); test: FMAT competition binding on cells
[2] = molecular target: cynomolgus formyl peptide receptor 1 (cynomolgus monkey)

| IC50 [1] [nM] | IC50, inhibition of fMLFF-induced calcium release, cynomolgus FPR1 HEK cells [2] [nM] | Binder |
| --- | --- | --- |
| 20 | 12 | Fpro0165 IgG (antibody, V domains shown) VH: EVQLVESGGGLVKPGGSLRLSCAASGFTFSNAWMNWVRQAPGKGLEWVGRVKSKTDGGAADYAAPVKGRFTISRDDSKNTLYLQMNSLKTEDTAVYYCTTDQLGYDFWNGYYTDTLYYYFGMDVWGPGTTVTVSS VL: DIVMTQSPLSLPVTPGEPASISCRSSQPLLAMDGHNYLDWYLQKPGQSPQVLIYQSKWRASGVPDRFSGSGSGTDFTLKISRVEAEDVGVYYCMQALQTPLTFGGGTKVEIK |
| 13 | – | Fpro0067 IgG (antibody, V domains shown) VH: EVQLVESGGGLVKPGGSLRLSCAASGFTFSNAWMNWVRQAPGKGLEWVGRIKSKTDGGAADYAAPVKGRFTISRDDSKNTLYLQMNSLKTEDTAVYYCTTDQLGYDFWSGYYTDTLYYYFGMDVWGPGTTVTVSS VL: DIVMTQSPLSLPVTPGEPASISCRSSQPLLAMDGHNYLDWYLQKPGQSPQVLIYQSKWRASGVPDRFSGSGSGTDFTLKISRVEAEDVGVYYCMQALQTPLTFGGGTKVEIK |
| 13 | – | Fpro0084 IgG (antibody, V domains shown) VH: EVQLVESGGGLVKPGGSLRLSCAASGFTFSNAWMNWVRQAPGKGLEWVGRIKSKTDGGAADYAAPVKGRFTISRDDSKNTLYLQMNSLKTEDTAVYYCTTDQLGYDFWSGYYTDTLYYYFGMDVWGPGTTVTVSS VL: DIVMTQSPLSLPVTPGEPASISCRSSQQLQAYDGHNYLDWYLQKPGQSPQVLIYLGSNRASGVPDRFSGSGSGTDFTLKISRVEAEDVGVYYCMQALQTPLTFGGGTKVEIK |
| 33 | – | Fpro0025 IgG (antibody, V domains shown) VH: EVQLVESGGGLVKPGGSLRLSCAASGFTFSNAWMNWVRQAPGKGLEWVGRIKSKTDGGAADYAAPVKGRFTISRDDSKNTLYLQMNSLKTEDTAVYYCTTDQLGYDFWSGYYTDTLYYYFGMDVWGPGTTVTVSS VL: DIVMTQSPLSLPVTPGEPASISCRSSQPLLAMDGHNYLDWYLQKPGQSPQVLIYLGSNRASGVPDRFSGSGSGTDFTLKISRVEAEDVGVYYCMQALQTPLTFGGGTKVEIK |
